{
  "source": "patent US5788969A",
  "about": "“Peptides for inducing cytotoxic T lymphocyte responses hepatitis B virus” (priority 1995, dated 1998)",
  "key": {"[1]": {"test_system": "PBMC from patients and normal donors", "conditions": "patients A-1 and A-3, after 2-3 weeks of stimulation"}, "[2]": {"test_system": "allogeneic target cells partially matched at HLA class I", "test": "HLA restriction of peptide specific CTL using allogeneic target cells partially matched at HLA class I", "assay_type": "cell-based, human", "conditions": "clone B3 (patient A-1) and polyclonal CTL line (patient A-3)", "method": "Using patient A-1's HBsAg329-348 specific cell line four clones were derived from cells plated at 1 cell per well (clone B13, B16, B17) or 0.3 cells per well (clone B3). Clone B3 was tested against a panel of allogeneic target cells partially matched with the effectors at the level of HLA class I alleles. […] Since the HLA-A2 subtypes of the patients were not determined, it is not known if the CTL response to the peptides is restricted only by the HLA-A2.1 allele or whether it extends to other HLA-A2 subtypes as well."}},
  "data": [
    {"sequence": "ASARFSWLSLLVPFVQWFVG [HBsAg329-348]", "values": [
      {"measurement": "cytotoxic response of peptide stimulated PBMC against JY cells prepulsed with the peptide", "setting": "[1]", "value": "strong cytotoxic response"},
      {"measurement": "HLA restriction of cytolytic activity of peptide specific CTL", "setting": "[2]", "value": "HLA-A2 restricted"}
    ]}
  ]
}
